# Assay results: US20230181729A1 (published 2023)
# T1: PRAME (PRAME-004) peptide on HLA-A*02:01 (human)
# T1 peptide: SLLQHLIGL
# B1: R16P1E8 (TCR, V domains shown)
# Valpha: QKEVEQDPGPLSVPEGAIVSLNCTYSNSAFQYFMWYRQYSRKGPELLMYTYSSGNKEDGRFTAQVDKSSKYISLFIRDSQPSDSATYLCAMSEAAGNKLTFGGGTRVLVKP
# Vbeta: EAGVAQSPRYKIIEKRQSVAFWCNPISGHATLYWYQQILGQGPKLLIQFQNNGVVDDSQLPKDRFSAERLKGVDSTLKIQPAKLEDSAVYLCASSYTNQGEAFFGQGTRLTVV
# B2: R17P1A9 (TCR, V domains shown)
# Valpha: QKEVEQNSGPLSVPEGAIASLNCTYSDRGSQSFFWYRQYSGKSPELIMSIYSNGDKEDGRFTAQLNKASQYVSLLIRDSQPSDSATYLCAVLNQAGTALIFGKGTTLSVSS
# Vbeta: DSGVTQTPKHLITATGQRVTLRCSPRSGDLSVYWYQQSLDQGLQFLIQYYNGEERAKGNILERFSAQQFPDLHSELNLSSLELGDSALYFCASSAETGPWLGNEQFFGPGTRLTVL
# B3: R17P1D7 (TCR, V domains shown)
# Valpha: AQTVTQSQPEMSVQEAETVTLSCTYDTSESDYYLFWYKQPPSRQMILVIRQEAYKQQNATENRFSVNFQKAAKSFSLKISDSQLGDAAMYFCAYRWAQGGSEKLVFGKGTKLTVNP
# Vbeta: EADIYQTPRYLVIGTGKKITLECSQTMGHDKMYWYQQDPGMELHLIHYSYGVNSTEKGDLSSESTVSRIRTEHFPLTLESARPSHTSQYLCATELWSSGGTGELFFGEGSRLTVL
# Biological target: T1, PRAME (PRAME-004) peptide on HLA-A*02:01
# Assay: cytokine release
row,binding result,Binder
1,recognises,B1
2,recognises,B2
3,recognises,B3
